Each block holds one compound with its values, some of them ahead of it.
Legend:
[1] = system: C51 murine colon carcinoma; test: In vivo treatment with L19-mTNFα fusion protein; parameters: species or system mouse
Method: Treatment with purified L19-mTNFα fusion protein was preformed in groups of 3 Balb.C mice each injected subcutaneously with 10^6 of C51 cells. At day 12 after C51 cell injection, 0.8 μg/g of L19-TNFα fusion protein was injected into the tail vein of each animal. A similar group of 3 animals was injected with Phosphate Saline Buffer, pH 7.4 (PBS). The animals were followed for systemic toxicity (weight loss) and tumor growth daily for 6 days. At the end, animals were sacrificed and tumors were placed in fixative for histological analysis and snap frozen for immunohistochemical analysis.
The efficacy of the L19-mTNFα fusion protein in suppressing tumor growth was tested on one experimental tumor model of mouse adenocarcinoma, C51. For tumor induction, 10^6 C51 cells were injected subcutaneously in Balb/C animals. After 12 days (when the tumor reaches approximately 100-200 mm^3) animals received intravenous injections of either PBS (3 animals) or L19-mTNFα fusion protein (3 animals). The animals were monitored for weight and tumor growth daily for 6 days. […] The weight loss was always less than 6% throughout the experiment time.

[2] = target: ED-B domain of fibronectin (Homo sapiens, UniProt P02751); test: Immunoreactivity of L19-mTNFα after radiolabelling; format: binding; parameters: recombinant ED-B domain of human Fibronectin (FN) as antigen; made in house; settings: iodine-125, Iodogen method
Method: (§1) Purified L19-mTNFα was radiolabeled with iodine-125 using the Iodogen method (Salacinski et al., Anal. Biochem., 117: 136, 1981)(Pierce, Rockford, Ill.). After labelling, the immunoreactivity was more than 90%. 129 mice with subcutaneously implanted F9 murine teratocarcinoma were intravenously injected with 4 μg (2 μCi) of protein in 100 μl saline solution. Three animals were used for each time point. Mice were sacrificed at 3, 6, 24 and 48 hours after injection. The organs were weighed and the radioactivity was counted. All organs and tumors were placed in fixative for histological analysis and microautoradiography. Targeting results of representative organs are expressed as percent of the injected dose per gram of tissue (% ID/g).

[3] = system: blood vessels of the F9 mouse tumor; test: Microautoradiography of tumors and organs of F9 tumor-bearing mice; format: in vivo
Method: (§2) Tumor and organ specimens were processed for microautoradiography to assess the pattern of ^125I-L19-IL2 fusion protein distribution within the tumors or organs as described by Tarli et al. 1999 (12). Immunohistochemical procedures were carried out as reported by Castellani et al. 1994 (11). The nonparametric Mann-Whitney test was used to assess the differences in tumor weights between the three different groups of animals (mice treated with L19-IL2 fusion protein, with mixture of L19+IL2 and PBS).
(§3) Tumor and organ specimens were processed for microautoradiography to assess the pattern of ^125I-L19TNFα fusion protein distribution within the tumors or organs as described by Tarli et al (Blood, 94: 192-198, 1999). Immunohistochemical procedures were carried out as reported by Castellani et al (Int. J. Cancer, 59: 612-618, 1994).

[4] = system: subcutaneously implanted F9 murine teratocarcinoma; test: Biodistribution of radiolabeled L19-mTNFα fusion protein in tumor-bearing mice; format: in vivo, mouse; settings: F9 tumor-bearing 129 mice
Method: as §1

[5] = system: blood vessels of glioblastoma tumor; test: Immunohistochemistry on glioblastoma tumor
Method: as §2, §3

[6] = in vivo; cited from earlier work
[7] = system: C51 murine carcinoma cell line; test: Crystal violet cytotoxicity assay; format: cell-based; settings: Mus musculus; C51 cells; crystal violet staining (FIG. 9); read-out: 50% inhibitory concentrations towards C51 cells
Method: C51 murine adenocarcinoma cells were seeded in 24-well plates at a density between […] per well. The plates were incubated overnight at 37° C. in humidified, 5% CO2 atmosphere to ensure the growth of the monolayer. The medium was then removed and different concentrations of doxorubicin was added. Relative cell numbers in treated and control plates were determined by crystal violet staining. Quantification is possible by solubilising the absorbed dye in ethanol 70% and determining optical density at 590 nm where absorbance is directly proportional to cell number. Relative cell number can be expressed as T/C=T−C0/C−C0×100 [T=absorbance of treated cultures, C=absorbance of control cultures, and C0=absorbance of cultures at the start of incubation (t=0)]. The results of this study are depicted in FIG. 9.

[8] = intravenously injected; cited from earlier work

Sequence of ED-B domain of fibronectin (P02751 1271-1359 limits assumed): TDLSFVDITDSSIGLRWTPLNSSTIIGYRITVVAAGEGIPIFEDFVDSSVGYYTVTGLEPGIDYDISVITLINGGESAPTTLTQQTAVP

immunoreactivity after labelling [2]: more than 90%
Compound: L19-mTNFα fusion protein: fusion of mouse TNFα to the scFv L19 via a 15 amino acid linker
tumor growth with respect to animals injected with PBS ([1]; 0.8 μg/g i.v. at day 12, followed 6 days (FIG. 23)): decrease in tumor growth
weight loss ([1]; throughout the experiment time (6 days)): less than 6%
accumulation of radiolabeled fusion protein in tumor blood vessels ([3]; F9 mouse tumor, microradiographic analysis): Accumulation of the radiolabeled fusion protein was shown
accumulation of radiolabeled fusion protein in vessels of other organs ([3]; organs of F9 tumor bearing mice): No accumulation
% ID/g Bladder ([4]; 3 h after i.v. injection): 37.52 ± 26.7 % ID/g
% ID/g Blood ([4]; 3 h after i.v. injection): 8.39 ± 5.0 % ID/g
% ID/g Heart ([4]; 3 h after i.v. injection): 2.69 ± 0.7 % ID/g
% ID/g Kidney ([4]; 3 h after i.v. injection): 7.96 ± 3.0 % ID/g
% ID/g Liver ([4]; 3 h after i.v. injection): 8.42 ± 1.9 % ID/g
% ID/g Lung ([4]; 3 h after i.v. injection): 6.56 ± 1.7 % ID/g
% ID/g Muscle ([4]; 3 h after i.v. injection): 1.33 ± 0.3 % ID/g
% ID/g Skin ([4]; 3 h after i.v. injection): 2.83 ± 1.3 % ID/g
% ID/g Spleen ([4]; 3 h after i.v. injection): 9.08 ± 2.0 % ID/g
% ID/g Thyroid ([4]; 3 h after i.v. injection): 3.21 ± 0.8 % ID/g
% ID/g Tumor ([4]; 3 h after i.v. injection): 22 % ID/g
% ID/g Tumor ([4]; 3 h after i.v. injection, listed as L19-TNFa fusion protein): 22.02 ± 2.3 % ID/g
% ID/g Bladder ([4]; 6 h after i.v. injection): 18.14 ± 9.1 % ID/g
% ID/g Blood ([4]; 6 h after i.v. injection): 2.13 ± 0.9 % ID/g
% ID/g Heart ([4]; 6 h after i.v. injection): 1.32 ± 0.5 % ID/g
% ID/g Kidney ([4]; 6 h after i.v. injection): 6.06 ± 5.2 % ID/g
% ID/g Liver ([4]; 6 h after i.v. injection): 2.39 ± 0.9 % ID/g
% ID/g Lung ([4]; 6 h after i.v. injection): 2.79 ± 1.4 % ID/g
% ID/g Muscle ([4]; 6 h after i.v. injection): 0.76 ± 0.2 % ID/g
% ID/g Skin ([4]; 6 h after i.v. injection): 1.68 ± 0.9 % ID/g
% ID/g Spleen ([4]; 6 h after i.v. injection): 3.29 ± 0.9 % ID/g
% ID/g Thyroid ([4]; 6 h after i.v. injection): 2.91 ± 1.8 % ID/g
% ID/g Tumor ([4]; 6 h after i.v. injection): 11.57 ± 2.7 % ID/g
% ID/g Bladder ([4]; 24 h after i.v. injection): 2.9 ± 2.2 % ID/g
% ID/g Blood ([4]; 24 h after i.v. injection): 0.09 ± 0.0 % ID/g
% ID/g Heart ([4]; 24 h after i.v. injection): 0.06 ± 0.0 % ID/g
% ID/g Kidney ([4]; 24 h after i.v. injection): 0.18 ± 0.0 % ID/g
% ID/g Liver ([4]; 24 h after i.v. injection): 0.15 ± 0.0 % ID/g
% ID/g Lung ([4]; 24 h after i.v. injection): 0.18 ± 0.1 % ID/g
% ID/g Muscle ([4]; 24 h after i.v. injection): 0.05 ± 0.0 % ID/g
% ID/g Skin ([4]; 24 h after i.v. injection): 0.03 ± 0.0 % ID/g
% ID/g Spleen ([4]; 24 h after i.v. injection): 0.13 ± 0.0 % ID/g
% ID/g Thyroid ([4]; 24 h after i.v. injection): 1.93 ± 0.5 % ID/g
% ID/g Tumor ([4]; 24 h after i.v. injection): 9.77 ± 1.4 % ID/g
% ID/g Bladder ([4]; 48 h after i.v. injection): 0.08 ± 0.0 % ID/g
% ID/g Blood ([4]; 48 h after i.v. injection): 0.01 ± 0.0 % ID/g
% ID/g Heart ([4]; 48 h after i.v. injection): 0.01 ± 0.0 % ID/g
% ID/g Kidney ([4]; 48 h after i.v. injection): 0.05 ± 0.0 % ID/g
% ID/g Liver ([4]; 48 h after i.v. injection): 0.02 ± 0.0 % ID/g
% ID/g Lung ([4]; 48 h after i.v. injection): 0.02 ± 0.0 % ID/g
% ID/g Muscle ([4]; 48 h after i.v. injection): 0.0 ± 0.0 % ID/g
% ID/g Skin ([4]; 48 h after i.v. injection): 0.01 ± 0.0 % ID/g
% ID/g Spleen ([4]; 48 h after i.v. injection): 0.01 ± 0.0 % ID/g
% ID/g Thyroid ([4]; 48 h after i.v. injection): 0.0 ± 0.0 % ID/g
% ID/g Tumor ([4]; 48 h after i.v. injection): more than 9 % ID/g
% ID/g Tumor ([4]; 48 h after i.v. injection, listed as L19-TNFa fusion protein): 9.55 ± 1.7 % ID/g
immunohistochemical staining of blood vessels [5]: strongly stain blood vessels of glioblastoma tumor

Compound: TNFα
plasma half-life [6]: less than 30 minutes

Compound: COc1cccc2c1C(=O)c1c(O)c3c(c(O)c1C2=O)C[C@@](O)(C(=O)CO)C[C@@H]3O[C@H]1C[C@H](N)[C@H](O)[C@H](C)O1 [doxorubicin, Doxorubicin]
IC50 [7]: ~100 nM
maximal tolerated dose [8]: 8 mg/kg
